Substitutions are numbered along the chain they refer to. Numbers in names are those of the source.
T1: TNFR1 (Homo sapiens, UniProt P19438)
T1 chain: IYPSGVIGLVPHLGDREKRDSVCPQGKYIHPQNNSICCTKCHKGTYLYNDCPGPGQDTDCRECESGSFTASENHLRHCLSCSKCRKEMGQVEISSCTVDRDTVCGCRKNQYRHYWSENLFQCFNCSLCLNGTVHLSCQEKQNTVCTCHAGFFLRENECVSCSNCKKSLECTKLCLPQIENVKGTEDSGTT

B1: A90I (designed binder)
chain: MTLQELLREEALRRAEAEAFRYALELLAEKFPEQKEYLLDLAEEIESQIRSLSGVDVEDVRKFLDKEWAWVKELLAEHPAELAEVEAARIARLAELRAEVEAKVAA
B2: K30D (designed binder)
chain: B1 chain with K30D, I90A
B3: A106I (designed binder)
chain: B1 chain with I90A, A106I
B4: L6H (designed binder)
chain: B1 chain with L6H, I90A
B5: E67W (designed binder)
chain: B1 chain with E67W, I90A
B6: F20T (designed binder)
chain: B1 chain with F20T, I90A
B7: E10G (designed binder)
chain: B1 chain with E10G, I90A
B8: P32E (designed binder)
chain: B1 chain with P32E, I90A
B9: Q34I (designed binder)
chain: B1 chain with Q34I, I90A
B10: A80T (designed binder)
chain: B1 chain with A80T, I90A
B11: K35F (designed binder)
chain: B1 chain with K35F, I90A
B12: A17I (designed binder)
chain: B1 chain with A17I, I90A
B13: S51V (designed binder)
chain: B1 chain with S51V, I90A
B14: L41D (designed binder)
chain: B1 chain with L41D, I90A
B15: A98E (designed binder)
chain: B1 chain with I90A, A98E
B16: A90G (designed binder)
chain: B1 chain with I90G
B17: D56G (designed binder)
chain: B1 chain with D56G, I90A
B18: K62N (designed binder)
chain: B1 chain with K62N, I90A
B19: L75M (designed binder)
chain: B1 chain with L75M, I90A
B20: V60A (designed binder)
chain: B1 chain with V60A, I90A
B21: E101N (designed binder)
chain: B1 chain with I90A, E101N
B22: V100K (designed binder)
chain: B1 chain with I90A, V100K
B23: R89V (designed binder)
chain: B1 chain with R89V, I90A
B24: E5N (designed binder)
chain: B1 chain with E5N, I90A
B25: R92N (designed binder)
chain: B1 chain with I90A, R92N
B26: V55H (designed binder)
chain: B1 chain with V55H, I90A
B27: L38R (designed binder)
chain: B1 chain with L38R, I90A
B28: L7C (designed binder)
chain: B1 chain with L7C, I90A
B29: E73Q (designed binder)
chain: B1 chain with E73Q, I90A
B30: E10H (designed binder)
chain: B1 chain with E10H, I90A
B31: A83F (designed binder)
chain: B1 chain with A83F, I90A
B32: R92M (designed binder)
chain: B1 chain with I90A, R92M
B33: L3R (designed binder)
chain: B1 chain with L3R, I90A
B34: R89F (designed binder)
chain: B1 chain with R89F, I90A
B35: V55T (designed binder)
chain: B1 chain with V55T, I90A
B36: I45L (designed binder)
chain: B1 chain with I45L, I90A
B37: Y37N (designed binder)
chain: B1 chain with Y37N, I90A
B38: E9P (designed binder)
chain: B1 chain with E9P, I90A
B39: L52H (designed binder)
chain: B1 chain with L52H, I90A
B40: L6E (designed binder)
chain: B1 chain with L6E, I90A
B41: F63E (designed binder)
chain: B1 chain with F63E, I90A
B42: R50P (designed binder)
chain: B1 chain with R50P, I90A
B43: L41K (designed binder)
chain: B1 chain with L41K, I90A
B44: A23W (designed binder)
chain: B1 chain with A23W, I90A
B45: V60Q (designed binder)
chain: B1 chain with V60Q, I90A
B46: E36F (designed binder)
chain: B1 chain with E36F, I90A
B47: A23C (designed binder)
chain: B1 chain with A23C, I90A
B48: K62D (designed binder)
chain: B1 chain with K62D, I90A
B49: A80K (designed binder)
chain: B1 chain with A80K, I90A
B50: P32L (designed binder)
chain: B1 chain with P32L, I90A
B51: Y22V (designed binder)
chain: B1 chain with Y22V, I90A
B52: E73D (designed binder)
chain: B1 chain with E73D, I90A
B53: E101R (designed binder)
chain: B1 chain with I90A, E101R
B54: L75A (designed binder)
chain: B1 chain with L75A, I90A
B55: D40M (designed binder)
chain: B1 chain with D40M, I90A
B56: Y22D (designed binder)
chain: B1 chain with Y22D, I90A
B57: R50I (designed binder)
chain: B1 chain with R50I, I90A
B58: A28P (designed binder)
chain: B1 chain with A28P, I90A
B59: V85W (designed binder)
chain: B1 chain with V85W, I90A

Target: T1, TNFR1
Experiment: yeast display SC50

| apparent Kd (screen) [nM] | Binder |
| --- | --- |
| 0.49 | B1 |
| 1.27 | B2 |
| 0.593 | B3 |
| 8.56 | B4 |
| 10.4 | B5 |
| 1.16 | B6 |
| 1.4 | B7 |
| 0.49 | B8 |
| 0.593 | B9 |
| 0.718 | B10 |
| 0.539 | B11 |
| 0.229 | B12 |
| 2.05 | B13 |
| 1.27 | B14 |
| 0.869 | B15 |
| 0.653 | B16 |
| 0.956 | B17 |
| 0.49 | B18 |
| 1.54 | B19 |
| 0.653 | B20 |

| apparent Kd (screen) [nM] | Binder |
| --- | --- |
| 0.718 | B21 |
| 0.49 | B22 |
| 0.79 | B23 |
| 0.446 | B24 |
| 0.718 | B25 |
| 1.16 | B26 |
| 4.39 | B27 |
| 8.56 | B28 |
| 0.446 | B29 |
| 3.3 | B30 |
| 0.593 | B31 |
| 0.593 | B32 |
| 2.48 | B33 |
| 1.05 | B34 |
| 0.718 | B35 |
| 0.539 | B36 |
| 0.869 | B37 |
| 20.2 | B38 |
| 6.43 | B39 |
| 8.56 | B40 |

| apparent Kd (screen) [nM] | Binder |
| --- | --- |
| 0.593 | B41 |
| 2.25 | B42 |
| 11.4 | B43 |
| 0.869 | B44 |
| 0.718 | B45 |
| 0.539 | B46 |
| 0.446 | B47 |
| 0.593 | B48 |
| 0.718 | B49 |
| 0.593 | B50 |
| 0.79 | B51 |
| 0.539 | B52 |
| 0.49 | B53 |
| 0.653 | B54 |
| 0.593 | B55 |
| 0.446 | B56 |
| 0.956 | B57 |
| 2.05 | B58 |
| 0.869 | B59 |

Source: paper PMC12416549 (2024)
